Tests used:
[1] = target: human CEACAM5 expressed on cancer cell lines (MKN-45, NCI-H441, SNU-16, SK-CO-1, LS174T) (human) (UniProt P06731); assay: flow cytometry, MKN-45 cells, 10 µg/mL antibody
[2] = target: human CEACAM5 expressed on cancer cell lines (MKN-45, NCI-H441, SNU-16, SK-CO-1, LS174T) (human) (UniProt P06731); assay: flow cytometry, NCI-H441 cells, 10 µg/mL antibody

human CEACAM5 expressed on cancer cell lines (MKN-45, NCI-H441, SNU-16, SK-CO-1, LS174T) (human), sequence (P06731 35-685): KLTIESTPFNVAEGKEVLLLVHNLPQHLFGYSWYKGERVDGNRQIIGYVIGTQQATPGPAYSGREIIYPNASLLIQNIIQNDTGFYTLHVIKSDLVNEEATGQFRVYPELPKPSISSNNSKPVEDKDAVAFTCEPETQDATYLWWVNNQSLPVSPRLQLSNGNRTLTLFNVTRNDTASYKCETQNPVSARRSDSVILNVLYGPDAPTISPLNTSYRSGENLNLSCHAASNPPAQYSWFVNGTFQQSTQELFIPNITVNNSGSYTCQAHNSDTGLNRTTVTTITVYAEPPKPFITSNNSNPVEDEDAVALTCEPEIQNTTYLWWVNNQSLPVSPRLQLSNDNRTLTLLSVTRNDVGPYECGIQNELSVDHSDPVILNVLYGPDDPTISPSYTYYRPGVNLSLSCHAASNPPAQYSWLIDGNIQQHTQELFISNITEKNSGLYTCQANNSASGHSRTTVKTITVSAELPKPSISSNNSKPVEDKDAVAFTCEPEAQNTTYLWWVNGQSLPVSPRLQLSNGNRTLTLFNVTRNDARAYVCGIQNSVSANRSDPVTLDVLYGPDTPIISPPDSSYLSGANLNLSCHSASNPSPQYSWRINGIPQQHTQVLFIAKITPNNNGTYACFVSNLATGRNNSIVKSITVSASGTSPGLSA

quotient of MFI of antibody divided by MFI of secondary antibody only control [1]: 3.8
quotient of MFI of antibody divided by MFI of secondary antibody only control [2]: 1.1
Substance: mouse monoclonal anti-CEACAM5 antibody Agilent Dako #M7072 clone II7

Source: patent publication US20240010749A1
